Measurements taken from PMC7954794, “Protein context shapes the specificity of SH3 domain-mediated interactions in vivo” (Nature Communications, 2021).

B1: BBC1: yeast SH3-containing protein; SH3-deleted or knockout strain (protein, UniProt P47068 1-1157, looked up)
Myosin tail …: MSEPEVPFKVVAQFPYKSDYEDDLNFEKDQEIIVTSVEDAEWYFGEYQDSNGDVIEGIFPKSFVAVQGSEVGKEAESSPNTGSTEQRTIQPEVEQKDLPEPISPETKKETLSGPVPVPAATVPVPAATVPVPAATAVSAQVQHDSSSGNGERKVPMDSPKLKARLSMFNQDITEQVPLPKSTHLDLENIPVKKTIVADAPKYYVPPGIPTNDTSNLERKKSLKENEKKIVPEPINRAQVESGRIETENDQLKKDLPQMSLKERIALLQEQQRLQAAREEELLRKKAKLEQEHERSAVNKNEPYTETEEAEENEKTEPKPEFTPETEHNEEPQMELLAHKEITKTSREADEGTNDIEKEQFLDEYTKENQKVEESQADEARGENVAEESEIGYGHEDREGDNDEEKEEEDSEENRRAALRERMAKLSGASRFGAPVGFNPFGMASGVGNKPSEEPKKKQHKEKEEEEPEQLQELPRAIPVMPFVDPSSNPFFRKSNLSEKNQPTETKTLDPHATTEHEQKQEHGTHAYHNLAAVDNAHPEYSDHDSDEDTDDHEFEDANDGLRKHSMVEQAFQIGNNESENVNSGEKIYPQEPPISHRTAEVSHDIENSSQNTTGNVLPVSSPQTRVARNGSINSLTKSISGENRRKSINEYHDTVSTNSSALTETAQDISMAAPAAPVLSKVSHPEDKVPPHPVPSAPSAPPVPSAPSVPSAPPVPPAPPALSAPSVPPVPPVPPVSSAPPALSAPSIPPVPPTPPAPPAPPAPLALPKHNEVEEHVKSSAPLPPVSEEYHPMPNTAPPLPRAPPVPPATFEFDSEPTATHSHTAPSPPPHQNVTASTPSMMSTQQRVPTSVLSGAEKESRTLPPHVPSLTNRPVDSFHESDTTPKVASIRRSTTHDVGEISNNVKIEFNAQERWWINKSAPPAISNLKLNFLMEIDDHFISKRLHQKWVVRDFYFLFENYSQLRFSLTFNSTSPEKTVTTLQERFPSPVETQSARILDEYAQRFNAKVVEKSHSLINSHIGAKNFVSQIVSEFKDEVIQPIGARTFGATILSYKPEEGIEQLMKSLQKIKPGDILVIRKAKFEAHKKIGKNEIINVGMDSAAPYSSVVTDYDFTKNKFRVIENHEGKIIQNSYKLSHMKSGKLKVFRIVARGYVGW
B2: YBL039C (protein, UniProt P28274 1-579, looked up)
CTP synthase 1: MKYVVVSGGVISGIGKGVLASSTGMLMKTLGLKVTSIKIDPYMNIDAGTMSPLEHGECFVLDDGGETDLDLGNYERYLGVTLTKDHNITTGKIYSHVIAKERKGDYLGKTVQIVPHLTNAIQDWIERVAKIPVDDTGMEPDVCIIELGGTVGDIESAPFVEALRQFQFKVGKENFALIHVSLVPVIHGEQKTKPTQAAIKGLRSLGLVPDMIACRCSETLDKPTIDKIAMFCHVGPEQVVNVHDVNSTYHVPLLLLEQKMIDYLHARLKLDEISLTEEEKQRGLELLSKWKATTGNFDESMETVKIALVGKYTNLKDSYLSVIKALEHSSMKCRRKLDIKWVEATDLEPEAQESNKTKFHEAWNMVSTADGILIPGGFGVRGTEGMVLAARWARENHIPFLGVCLGLQIATIEFTRSVLGRKDSHSAEFYPDIDEKNHVVVFMPEIDKETMGGSMRLGLRPTFFQNETEWSQIKKLYGDVSEVHERHRHRYEINPKMVDELENNGLIFVGKDDTGKRCEILELKNHPYYIATQYHPEYTSKVLDPSKPFLGLVAASAGILQDVIEGKYDLEAGENKFNF

Test system: 575 putative partners (preys) of 22 WT SH3-containing proteins
Test: DHFR-PCA on solid medium, WT and SH3-deleted baits (Fig. 1B)
Assay type: cell-based, Saccharomyces cerevisiae
Set-up: key to Score: 0: SH3-independent; 1: SH3-dependent PPIs; 2: SH3-inhibited PPIs
Details: for medrep (log2 median colony size normalized to plate background, PCA score): label = prey
In short: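 Interactions scored by DHFR protein-fragment complementation on solid medium using robotic pinning; preys (DHFR F[3] fusions) arrayed in duplicate with control borders. Baits carried C-terminal DHFR F[1,2]-FLAG tags, tested as wild type and as SH3-deleted versions carrying a flexible Gly/Ser stuffer.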

| Molecule | SH3-dependent PPIs (number of PPIs, SH3 domain in its own protein, DHFR-PCA, Fig2D,S2F) | medrep (log2 median colony size normalized to plate background, PCA score) (bait SLA1-2, DHFR-PCA, Replicates 4 (2 for YCR009C, YDR388W)) | Score (bait SLA1-2, label = prey) | Ratio (SH3-deleted/WT medrep) (bait SLA1-2, label = prey, only significant differences shown, PPIs completely lost have a ratio of 0.1, gained PPIs 2.5) | medrep (log2 median colony size normalized to plate background, PCA score) (bait SLA1-3, DHFR-PCA, Replicates 4 (2 for YCR009C, YDR388W, YIL033C)) | Score (bait SLA1-3, label = prey) |
| --- | --- | --- | --- | --- | --- | --- |
| B1 | 19 | – | – | – | – | – |
| B2 | – | 2.2515 | 1 | 0.1 | 2.2515 | 0 |
